# Data as given in patent US20190330357A1 (Bayer, published 2019).
# Where a chain is given by its changes, count along the chain named.
# T1: IL-3Rα, CD123 (interleukin 3 receptor subunit alpha) as expressed on CD123-positive human cancer cell lines … (human, UniProt P26951 20-378)
# T1 construct: Target of the flow cytometry on the human cell line MOLM-13 (CD123-positive); NCBI Gene ID 3563; also called IL3RA; IL3R-alpha
# T1 sequence: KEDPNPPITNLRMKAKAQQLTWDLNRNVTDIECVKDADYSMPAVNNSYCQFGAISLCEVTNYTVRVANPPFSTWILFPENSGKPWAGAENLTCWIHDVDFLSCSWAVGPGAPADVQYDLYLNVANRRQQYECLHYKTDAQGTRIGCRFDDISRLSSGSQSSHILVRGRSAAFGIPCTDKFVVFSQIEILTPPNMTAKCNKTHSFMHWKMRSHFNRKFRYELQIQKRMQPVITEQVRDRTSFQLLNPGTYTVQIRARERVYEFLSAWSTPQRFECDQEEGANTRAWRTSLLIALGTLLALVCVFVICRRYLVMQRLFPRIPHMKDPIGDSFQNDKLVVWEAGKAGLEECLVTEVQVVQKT
# T2: TPP-5521, recombinant IL3Ra aa20-305 (extracellular domain of IL3Ra, R&D Systems) (murine (printed under Origin in Table …, UniProt P26951 20-305))
# T2 construct: Bought antigen; also called soluble IL3Ralpha; IL3Ra protein
# T2 sequence: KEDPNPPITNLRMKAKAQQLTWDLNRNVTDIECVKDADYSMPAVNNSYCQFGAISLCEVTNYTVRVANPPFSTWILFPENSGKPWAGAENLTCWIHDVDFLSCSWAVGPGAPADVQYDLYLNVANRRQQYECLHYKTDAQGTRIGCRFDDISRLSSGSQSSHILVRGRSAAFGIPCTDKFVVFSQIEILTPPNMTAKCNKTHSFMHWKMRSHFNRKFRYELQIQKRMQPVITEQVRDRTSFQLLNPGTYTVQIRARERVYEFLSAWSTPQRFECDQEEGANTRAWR
# B1: TPP-6013 (antibody, human IgG1, kappa, V domains shown)
# VH: QVQLQESGPGLVKPSQSLSLTCSVTDYSITSGYYWNWIRQFPGNKLEWMGYISYDGSNNYNPSLKNRISITRDTSKNQFFLKLSSVTTEDTATYYCSRGEGFYFDSWGQGTTLTVSS
# VL: DIMMSQSPSSLAVSVGEKFTMTCKSSQSLFFGSTQKNYLAWYQQKPGQSPKLLIYWASTRESGVPDRFTGSGSGTDFTLAISSVMPEDLAVYYCQQYYNYPWTFGGGTKLEIKR
# notes: Chimeric antibody: murine 12F1 variable domains with human IgG1 kappa constant regions; also called antiCD123-12F1-hIgG1Kappa; chimeric variant of 12F1
# B2: TPP-8617 (antibody, human IgG1, kappa, V domains shown)
# VH: EVQLVQSGAEVKKPGESLKISCKGSDYSITSGYYWNWVRQMPGKGLEWMGYISYDGSNNYNPSLKNGQVTISADKSISTAYLQWSSLKASDTAMYYCSRGEGFYFDSWGQGTLVTVSS
# VL: B1 VL
# notes: Humanized 12F1 graft on IGKV4-1 / IGHV5-51; also called Hum-TPP6013-17
# B3: TPP-8988 (antibody, human IgG1, kappa, V domains shown)
# VH: EVQLLESGGGLVQPGGSLRLSCAVSDYSITSGYYWNWIRQAPGKKLEWMGYISYDGSNNYNPSLKNGRITISRDTSKNTFYLQMNSLRAEDTAVYYCARGEGFYFDSWGQGTLVTVSS
# VL: EIVLTQSPGTLSLSPGERATLSCKSSQSLFFGSTQKNYLAWYQQKPGQAPRLLIYWASTRESGIPDRFSGSGSGTDFTLTISRLEPEDFAVYYCQQYYNYPWTFGQGTKLEIKR
# notes: Humanized variant of 12F1 (IGKV3-20 / IGHV3-66 frameworks), human IgG1 kappa
# B4: TPP-9104 (antibody, human IgG1, kappa, V domains shown)
# VH: B3 VH with G32N
# VL: B3 VL
# B5: TPP-9130 (antibody, human IgG1, kappa, V domains shown)
# VH: B3 VH
# VL: B3 VL with W56G, T59S, E61A, S62T
# B6: TPP-9075 (antibody, human IgG1, kappa, V domains shown)
# VH: B3 VH with W35S
# VL: B3 VL
# B7: TPP-5969 (antibody, human IgG1, kappa, V domains shown)
# VH: QVQLVQSGAEVKKPGSSVKVSCKASGGTFSDYYMKWVRQAPGQGLEWMGDIIPSNGATFYAQKFQGRVTITADESTSTAYMELSSLRSEDTAVYYCARSHLLRASWFAYWGQGTLVTVSS
# VL: DIVMTQSPDSLAVSLGERATINCESSQSLLNSGNQKNYLTWYQQKPGQPPKLLIYWASTRESGVPDRFSGSGSGTDFTLTISSLQAEDVAVYYCQNDYSYPYTFGQGTKLEIKR
# notes: Humanized version of murine 7G3, human IgG1 kappa; also called HU7G3-4-hIgG1Kappa
# B8: TPP-8987 (antibody, human IgG1, kappa, V domains shown)
# VH: B7 VH with A61N, Q65K, R67Q
# VL: B7 VL with L29V
# notes: Humanized and germlined variant of 7G3, human IgG1 kappa
# B9: TPP-8695 (antibody, human IgG1, kappa, V domains shown)
# VH: B7 VH with A61N, Q65K, R67Q
# VL: B7 VL
# notes: also called Variant4-hIgG1kappa
# B10: TPP-9476 (antibody, human IgG1, kappa, V domains shown)
# VH: B7 VH with A61N, Q65K
# VL: B7 VL with L29V
# notes: as for B8
# B11: TPP-9129 (antibody, human IgG1, kappa, V domains shown)
# VH: B3 VH
# VL: EIVLTQSPGTLSLSPGERATLSCRASQSVSSSYLAWYQQKPGQAPRLLIYWASTRESGIPDRFSGSGSGTDFTLTISRLEPEDFAVYYCQQYYNYPWTFGQGTKLEIKR
# B12: TPP-9078 (antibody, human IgG1, kappa, V domains shown)
# VH: B3 VH with M49V
# VL: B3 VL
# Biological target: T1, IL-3Rα, CD123 (interleukin 3 receptor …)
# Assay: flow cytometry on MOLM-13 cells, anti-kappa-FITC secondary antibody
# Description: (§1) Binding of the anti-CD123 antibodies was examined by flow cytometry using human haematological cell line MOLM-13. To this end, the cells (5×10⁵ cells/well) were incubated in FACS buffer (PBS without Ca/Mg, 3% FCS, Biochrom) with 10 μg/ml primary antibody solution (start concentration) on ice for 30-45 min protected from light. A dose activity curve (1:5 dilution) was plotted. After the incubation, 200 μl of ice-cold FACS buffer were added using a pipette, and the cell suspension was centrifuged at 4° C. 400 g for 4 min. The cell pellet was washed with 300 μl of ice-cold FACS buffer and the pellet obtained was then resuspended in 100 μl FACS buffer and incubated again with secondary antibody (monoclonal anti-kappa light chains-FITC antibody, Sigma, No. SAB4700605) in a 1:10 dilution on ice for 30 min. The cells were then washed with ice-cold FACS buffer and adjusted to a cell concentration of 0.5×10⁶ cell/m1 prior to flow cytometry using a Guava flow cytometer (Millipore). Propidium iodide (final concentration 1 μg/ml) was used for live staining. The results were shown as EC₅₀ values determined based on the dose response curve and efficacy compared to maximal binding.
EC50,Efficacy [%] (compared to maximal binding),Binder
2 nM,100%,B1
1.4 nM,100%,B2
1.9 nM,100%,B3
25.3 nM,83%,B4
3.01 nM,100%,B5
5.37 nM,100%,B6
5.3 nM,34%,B7
3.2 nM,100%,B8
1.12 nM,36%,B9
2.8 nM,100%,B10

# Biological target: T2, TPP-5521, recombinant IL3Ra aa20-305 …
# Assay: SPR (Biacore T200), antibody captured by anti-human Fc, IL3Ra ECD as analyte, 1:1 Langmuir fit, 25 °C
# Description: Surface plasmon resonance experiments for quantitative binding analysis were carried out using a Biacore T200 instrument (GE Healthcare Biacore, Inc.). Here the antibodies to be examined were fixed with the aid of an anti-human Fc antibody (“Human Antibody Capture Kit”, BR-1008-39, GE Healthcare Biacore, Inc.) amine-coupled to the sensor chip surface Amine coupling was performed according to the manufacturer's instructions using 1-ethyl-3-(3-dimethylaminopropyl)carbodiimide hydrochloride (EDC), N-hydroxysuccinimide (NHS) and ethanolamine HCl pH 8.5 (“Amine Coupling Kit” BR-1000-50, GE Healthcare Biacore, Inc.). For the analyses, Series S sensor chips CMS (GE Healthcare Biacore, Inc.) were used with the mobile buffer HBS-EP+ (10 mM HEPES pH 7.4, 150 mM NaCl, 3 mM EDTA, 0.05% Surfactant P20). All experimental steps were carried out at 25° C. After fixation of the anti-CD123 antibodies to be examined, injections of the extracellular domain of IL3Ra (analyte, R&D Systems) at concentrations of 100 nM were carried out, and after each antigen injection the sensor surface was regenerated with glycine HCl pH 2.0. Prior to another analyte injection, antibodies were in each case fixed as above, under identical conditions. For all measurements, an upstream flow cell only containing immobilized amine-coupled anti-human Fc antibody was used as reference cell. Evaluation of the sensorgrams obtained was, after double referencing (subtraction of the reference flow cell signal and a buffer injection), carried out by a global fit based on a 1:1 Langmuir binding model with the aid of the Biacore T200 evaluation software (GE Healthcare Biacore, Inc.).
row,Kd,Binder
1,0.8 nM,B1
2,0.33 nM,B3
3,1.24 nM,B8
4,7.2 nM,B10

# Biological target: T1, IL-3Rα, CD123 (interleukin 3 receptor …)
# Assay: flow cytometry on MOLM-13 cells
# Description: as §1
row,Binder,binding result
1,B11,no binding (tested: 10 µg/ml (start concentration))
2,B12,no binding (tested: 10 µg/ml (start concentration))
